Literature values in paper PMC6133022.
pKd: −log10 of the molar value.

Biological target: alpha-bungarotoxin (Bungarus multicinctus) (UniProt P60615)
Sequence of UniProt P60615 (P60615 22-95): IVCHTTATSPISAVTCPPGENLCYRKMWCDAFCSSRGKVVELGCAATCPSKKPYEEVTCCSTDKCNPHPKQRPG

Question: With alpha7-nAChR (from UniProt P36544) as the substance, how does the pKd read?
Answer: The pKd was 10.03.
